From patent US6541008 (UNIVERSITY OF OTAGO, dated 2003) come the findings set out here.

In experiment [1] the target is chimeric receptor consisting of the extracellular domain of mouse VEGFR-2 and the transmembrane and … (mouse, UniProt P35918 20-762; P14753 250-507, limits assumed). The experiment can be described thus: cell-based or functional assay.
The target in a further experiment is T1, VEGFR-3-Ig (human, UniProt P35916 25-775).
T1 construct: extracellular domain; also called soluble Ig-fusion protein containing the extracellular domain of human VEGFR-3; not shown: Fc portion of human IgG1
T1 sequence (looked up): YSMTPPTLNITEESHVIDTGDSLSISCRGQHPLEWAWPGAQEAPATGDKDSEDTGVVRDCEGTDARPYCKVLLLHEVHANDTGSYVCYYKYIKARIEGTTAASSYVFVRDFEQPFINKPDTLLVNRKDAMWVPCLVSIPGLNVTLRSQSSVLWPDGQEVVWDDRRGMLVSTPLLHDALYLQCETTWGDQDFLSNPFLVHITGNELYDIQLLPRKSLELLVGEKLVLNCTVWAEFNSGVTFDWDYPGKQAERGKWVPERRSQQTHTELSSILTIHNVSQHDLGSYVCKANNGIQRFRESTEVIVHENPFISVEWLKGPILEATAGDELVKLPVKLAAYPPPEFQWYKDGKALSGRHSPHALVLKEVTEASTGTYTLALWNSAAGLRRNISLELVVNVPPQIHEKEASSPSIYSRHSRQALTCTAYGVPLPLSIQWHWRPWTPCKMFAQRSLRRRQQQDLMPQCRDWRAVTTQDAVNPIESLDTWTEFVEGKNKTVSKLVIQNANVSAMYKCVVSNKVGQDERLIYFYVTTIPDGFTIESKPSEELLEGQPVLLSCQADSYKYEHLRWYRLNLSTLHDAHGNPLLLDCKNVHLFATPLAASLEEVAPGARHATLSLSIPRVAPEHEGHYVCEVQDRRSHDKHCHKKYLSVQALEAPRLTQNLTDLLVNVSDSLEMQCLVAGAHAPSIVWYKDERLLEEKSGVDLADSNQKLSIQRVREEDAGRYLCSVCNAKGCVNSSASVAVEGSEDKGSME
In words: precipitation of 35S-labeled conditioned medium with receptor-Ig on protein A-Sepharose, SDS-PAGE, phosphorimager. The protocol:
(§1) To further assess the interactions between ORFV2-VEGF and the VEGFRs, ORFV2-VEGF was tested for its capacity to bind to soluble Ig-fusion proteins containing the extracellular domains of human VEGFR-1, VEGFR-2 and VEGFR-3. The fusion proteins, designated VEGFR-1-Ig, VEGFR-2-Ig and VEGFR-3-Ig, were transiently expressed in 293 EBNA cells. All Ig fusion proteins were human VEGFRs. Cells were incubated for 24 hours after transfection, washed with DMEM containing 0.2% bovine serum albumin and starved for 24 hours. The fusion proteins were then precipitated from the clarified conditioned medium using protein A-Sepharose beads. The beads were combined with 100 µl of 10x binding buffer (5% bovine serum albumin, 0.2% Tween 20 and 10 µg/ml heparin) and 900 µl of conditioned medium from 293 cells that had been transfected with expression plasmids encoding VEGF, VEGF-DΔNΔC,ORFV2-VEGF or control vector, then metabolically labeled with ^35S-cysteine/methionine for 4 to 16 hours. After 2.5 hours, at room temperature, the Sepharose beads were washed 3 times with binding buffer at 4° C., once with phosphate buffered saline and boiled in SDS-PAGE buffer. Labeled proteins that were bound to the Ig-fusion proteins were analyzed by SDS-PAGE under reducing conditions. Radiolabeled proteins were detected using a phosphorimager analyzer.

In experiment [2] the target is T2, VEGFR-1-Ig (human, UniProt P17948 27-758).
T2 construct: extracellular domain; also called soluble Ig-fusion protein containing the extracellular domain of human VEGFR-1; not shown: Fc portion of human IgG1
The experiment is described as above. The protocol: as §1

The next experiment concerns the target T3, VEGFR-2-Ig (human, UniProt P35968 20-764).
T3 construct: extracellular domain; also called soluble Ig-fusion protein containing the extracellular domain of human VEGFR-2; not shown: Fc portion of human IgG1
The experiment is described as above. The method, then: as §1

For experiment [3], the target named is T2, VEGFR-1-Ig. In words: not described; told in Example 3 with the receptor-Ig precipitations.

T2 sequence (P17948 27-758): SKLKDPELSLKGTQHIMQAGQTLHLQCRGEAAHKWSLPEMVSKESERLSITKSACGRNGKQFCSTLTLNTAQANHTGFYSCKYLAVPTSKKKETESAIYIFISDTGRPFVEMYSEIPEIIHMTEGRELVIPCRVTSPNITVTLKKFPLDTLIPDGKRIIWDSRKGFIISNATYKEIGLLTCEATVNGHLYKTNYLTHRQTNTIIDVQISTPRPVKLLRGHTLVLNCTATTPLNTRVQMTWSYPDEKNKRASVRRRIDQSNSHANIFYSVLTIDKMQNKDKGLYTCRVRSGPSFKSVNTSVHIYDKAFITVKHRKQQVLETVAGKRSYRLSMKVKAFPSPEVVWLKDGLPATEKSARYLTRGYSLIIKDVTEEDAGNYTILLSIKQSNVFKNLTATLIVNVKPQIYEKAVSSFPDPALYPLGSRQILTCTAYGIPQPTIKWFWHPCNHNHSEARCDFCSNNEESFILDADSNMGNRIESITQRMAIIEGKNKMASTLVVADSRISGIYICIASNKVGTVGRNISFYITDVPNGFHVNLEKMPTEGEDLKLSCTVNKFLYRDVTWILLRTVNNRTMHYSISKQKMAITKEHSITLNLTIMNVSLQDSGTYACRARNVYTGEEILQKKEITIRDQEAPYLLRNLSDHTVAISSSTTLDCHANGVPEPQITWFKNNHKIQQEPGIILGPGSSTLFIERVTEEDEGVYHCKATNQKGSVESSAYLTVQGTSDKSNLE
T3 sequence (P35968 20-764): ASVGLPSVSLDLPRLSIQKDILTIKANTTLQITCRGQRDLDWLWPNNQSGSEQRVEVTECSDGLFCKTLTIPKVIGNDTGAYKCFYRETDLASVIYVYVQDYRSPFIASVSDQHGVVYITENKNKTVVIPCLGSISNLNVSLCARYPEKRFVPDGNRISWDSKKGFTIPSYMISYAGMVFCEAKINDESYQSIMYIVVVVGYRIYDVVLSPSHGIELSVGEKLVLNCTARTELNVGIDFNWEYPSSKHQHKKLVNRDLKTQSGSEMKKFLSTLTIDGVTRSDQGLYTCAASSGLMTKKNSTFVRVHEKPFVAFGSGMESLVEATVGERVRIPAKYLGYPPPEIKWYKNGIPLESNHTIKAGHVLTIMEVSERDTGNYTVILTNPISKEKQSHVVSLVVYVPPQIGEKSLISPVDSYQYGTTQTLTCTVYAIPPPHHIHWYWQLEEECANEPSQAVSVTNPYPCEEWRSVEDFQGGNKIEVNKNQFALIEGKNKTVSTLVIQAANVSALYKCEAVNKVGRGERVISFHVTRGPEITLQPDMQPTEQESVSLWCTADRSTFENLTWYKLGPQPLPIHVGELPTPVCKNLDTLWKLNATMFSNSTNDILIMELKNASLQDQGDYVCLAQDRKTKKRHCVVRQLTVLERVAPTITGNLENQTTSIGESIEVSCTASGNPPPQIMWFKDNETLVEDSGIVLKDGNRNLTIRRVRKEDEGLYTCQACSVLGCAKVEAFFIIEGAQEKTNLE
chimeric receptor consisting of the extracellular domain of mouse VEGFR-2 and the transmembrane and …, sequence (P35918 other isoform, or with tags, fused parts or gaps mutant limits assumed): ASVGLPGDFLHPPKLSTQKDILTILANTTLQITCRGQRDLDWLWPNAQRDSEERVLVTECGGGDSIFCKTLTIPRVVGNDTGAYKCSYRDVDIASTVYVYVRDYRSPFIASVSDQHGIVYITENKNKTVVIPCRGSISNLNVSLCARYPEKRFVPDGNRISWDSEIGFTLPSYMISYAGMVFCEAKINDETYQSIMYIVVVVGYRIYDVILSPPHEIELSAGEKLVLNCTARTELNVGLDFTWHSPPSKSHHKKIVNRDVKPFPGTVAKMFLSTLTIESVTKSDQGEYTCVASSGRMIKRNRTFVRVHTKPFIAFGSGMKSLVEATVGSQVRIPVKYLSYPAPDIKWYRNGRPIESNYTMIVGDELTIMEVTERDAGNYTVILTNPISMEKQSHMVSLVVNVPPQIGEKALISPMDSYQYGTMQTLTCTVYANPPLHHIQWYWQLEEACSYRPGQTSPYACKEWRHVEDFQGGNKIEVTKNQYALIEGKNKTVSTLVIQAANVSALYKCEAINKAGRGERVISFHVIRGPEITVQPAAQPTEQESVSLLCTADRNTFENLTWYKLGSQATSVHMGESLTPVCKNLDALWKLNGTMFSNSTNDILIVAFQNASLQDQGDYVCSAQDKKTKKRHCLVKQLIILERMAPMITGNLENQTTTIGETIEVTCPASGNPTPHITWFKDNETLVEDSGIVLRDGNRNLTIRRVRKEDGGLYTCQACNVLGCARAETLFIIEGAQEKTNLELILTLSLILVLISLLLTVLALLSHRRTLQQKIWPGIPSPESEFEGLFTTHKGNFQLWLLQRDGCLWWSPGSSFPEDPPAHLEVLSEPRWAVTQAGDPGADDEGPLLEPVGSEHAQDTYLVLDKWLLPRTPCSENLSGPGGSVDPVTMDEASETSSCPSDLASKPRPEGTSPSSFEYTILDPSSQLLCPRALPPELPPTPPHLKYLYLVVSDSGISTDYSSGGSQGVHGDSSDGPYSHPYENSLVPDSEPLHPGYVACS

B1: FLAG-tagged ORFV2-VEGF (ligand)
chain: DSNTKGWSEVLKGSECKPRPIVVPVSETHPELTSQRFNPPCVTLMRCGGCCNDESLECVPTEEVNVTMELLGASGSGSNGMQRLSFVEHKKCDCRPRFTTTPPTTTRPPRRRR
notes: Disulfide-linked homodimer, glycosylated; Expressed in COS or 293EBNA cells; also called NZ2; ORVF2-VEGF; not shown: FLAG octapeptide at the C-terminus
Regarding B1, in experiment [1], the “potency in the Ba/F3 VEGFR-2-EpoR bioassay compared to mouse VEGF” value was ~4 fold less potent than mouse VEGF. For the same molecule, the values for the binding result with VEGFR-3-Ig, with VEGFR-1-Ig [2] and with VEGFR-2-Ig were “no binding”, “no binding” and “binds”, respectively.

B2: mouse VEGF164 (ligand, UniProt Q00731-2 27-190, looked up)
chain: APTTEGEQKSHEVIKFMDVYQRSYCRPIETLVDIFQEYPDEIEYIFKPSCVPLMRCAGCCNDEALECVPTSESNITMQIMRIKPHQSQHIGEMSFLQHSRCECRPKKDRTKPENHCEPCSERRKHLFVQDPQTCKCSCKNTDSRCKARQLELNERTCRCDKPRR
Regarding B2, the binding result was “no binding” in the experiment with VEGFR-3-Ig, “binds” with VEGFR-1-Ig [2] and “binds” in the experiment with VEGFR-2-Ig.

B3: FLAG-tagged NZ10 (ligand)
chain: DSTKTWSEVFESSKCKPRPTVVPVGEAHPELTSQRFNPQCVTVMRCGGCCNDESLECVPTEEANVTMQLMGASVSGGNGMQHLIFVEHKKCDCKPRLTTTPPTTTRPPRRRR
notes: Disulfide-linked homodimer, secreted from 293EBNA-1 cells and purified on M2-gel; also called ORFV10-VEGF; not shown: FLAG octapeptide at the C-terminus
Regarding B3, the binding result in the experiment with VEGFR-1-Ig [3] is “no binding”.
